Measurements from patent US20260085114A1 (KYINNO BIOTECHNOLOGY, published 2026).

Key:
[1] = molecular target: T1, monkey (cyno) GPRC5D, on 293T cells (monkey (cyno)); assay: FACS on 293T cells expressing monkey (cyno) GPRC5D (run with 6E97(hz))
T1 construct: whole, on cells; also called monkey GPRC5D
Method: (§1) 100 μl of FACS buffer was then added to each FACS tube for resuspension. 5 μl of PE-labeled, anti-murine Fc tagged secondary antibody (Biolegend, catalog number 409304) was added according to instructions, and incubated at 4° C. in the dark for 30 mins. Then 1 ml of FACS buffer was added, and centrifuged at 1200 rpm at room temperature for 5 mins. The supernatant was discarded followed by washing three times.
(§2) The experimental process was as described in Example 4. […] Control tube 1 (no antibody and secondary antibody, adding only cell suspension) and Control tube 2 (no antibody, adding only cell suspension and secondary antibody) were included.

[2] = molecular target: T1, monkey (cyno) GPRC5D, on 293T cells; assay: FACS on 293T cells expressing monkey GPRC5D
From the text: (§3) According to the method described in Example 4, the binding between the culture supernatant of the hybridoma cells and monkey GPRC5D was detected, except that the human GPRC5D-expressing cells were replaced with 293T cells expressing monkey GPRC5D (Kyinno, catalog number KC-1586).

[3] = molecular target: T2, human GPRC5B, on 293T cells (human, UniProt Q9NZH0 29-403); assay: FACS on 293T-GPRC5B cells, antibody at 2 µg/mL; control tubes 8.55 and 8.26
T2 construct: whole, on cells; also called 293T-GPRC5B
T2 sequence (Q9NZH0 29-403): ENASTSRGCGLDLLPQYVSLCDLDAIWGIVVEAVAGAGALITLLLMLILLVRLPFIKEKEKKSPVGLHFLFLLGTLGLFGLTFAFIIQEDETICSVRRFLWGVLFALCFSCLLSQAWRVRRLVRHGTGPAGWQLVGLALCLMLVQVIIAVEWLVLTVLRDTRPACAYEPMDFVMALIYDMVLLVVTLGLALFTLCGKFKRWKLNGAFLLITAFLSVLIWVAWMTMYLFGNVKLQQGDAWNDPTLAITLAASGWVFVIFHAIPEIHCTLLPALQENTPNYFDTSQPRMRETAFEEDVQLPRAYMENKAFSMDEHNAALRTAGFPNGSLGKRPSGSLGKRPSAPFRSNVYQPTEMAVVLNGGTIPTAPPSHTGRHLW
Method: as §1
(§4) The experimental process was as described in Example 4, cells expressing other members of G protein-coupled receptor class C group 5 as follows were used: 293T cells expressing human GPRC5A, 293T-GPRC5A (Kyinno, catalog number KC-1888), 293T cells expressing human GPRC5B, 293T-GPRC5B (Kyinno, catalog number KC-1854), and 293T cells expressing human GPRC5C, 293T-GPRC5C (Kyinno, catalog number KC-1889). […] Control tube 1 (no antibody and secondary antibody, adding only cell suspension) and Control tube 2 (no antibody, adding only cell suspension and secondary antibody) were included.

[4] = molecular target: T1, monkey (cyno) GPRC5D, on 293T cells; assay: FACS on 293T cells expressing monkey (cyno) GPRC5D (run with 24F5(hz))
Method: as §1, §2

[5] = molecular target: T3, human GPRC5C, on 293T cells (human, UniProt Q9NQ84 24-441); assay: FACS on 293T-GPRC5C cells, antibody at 2 µg/mL; control tubes 8.86 and 8.73
T3 construct: whole, on cells; also called 293T-GPRC5C
T3 sequence (Q9NQ84 24-441): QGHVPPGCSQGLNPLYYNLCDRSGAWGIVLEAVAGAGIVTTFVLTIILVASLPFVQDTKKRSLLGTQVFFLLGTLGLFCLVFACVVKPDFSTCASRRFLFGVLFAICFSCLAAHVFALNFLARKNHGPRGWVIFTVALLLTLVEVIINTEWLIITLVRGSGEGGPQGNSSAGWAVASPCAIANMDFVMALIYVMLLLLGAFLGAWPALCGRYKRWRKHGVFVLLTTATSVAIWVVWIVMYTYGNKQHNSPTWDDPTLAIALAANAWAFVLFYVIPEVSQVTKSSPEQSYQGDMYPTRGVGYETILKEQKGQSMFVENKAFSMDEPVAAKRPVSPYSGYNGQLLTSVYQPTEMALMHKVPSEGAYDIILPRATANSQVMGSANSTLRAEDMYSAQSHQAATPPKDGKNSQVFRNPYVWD
Method: as §1, §4

[6] = molecular target: T1, monkey (cyno) GPRC5D, on 293T cells; assay: FACS on 293T cells expressing monkey (cyno) GPRC5D (run with 9D7(hz))
Method: as §1, §2

[7] = molecular target: T4, human GPRC5D (G protein-coupled receptor class C group 5 member D), on cells (human, UniProt Q9NZD1 1-345); assay: FACS, hybridoma supernatant on 293T cells expressing human GPRC5D
T4 construct: whole, on cells; also called hGPRC5D
T4 sequence (Q9NZD1 whole entry): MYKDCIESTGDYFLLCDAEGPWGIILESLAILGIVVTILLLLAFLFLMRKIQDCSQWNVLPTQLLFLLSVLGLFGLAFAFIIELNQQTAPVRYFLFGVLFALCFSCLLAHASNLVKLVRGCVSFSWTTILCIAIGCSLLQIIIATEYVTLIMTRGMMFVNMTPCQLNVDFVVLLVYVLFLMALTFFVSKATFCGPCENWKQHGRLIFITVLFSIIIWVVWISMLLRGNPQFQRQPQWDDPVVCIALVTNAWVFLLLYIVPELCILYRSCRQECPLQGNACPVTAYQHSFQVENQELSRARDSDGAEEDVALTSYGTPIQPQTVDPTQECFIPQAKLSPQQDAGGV
Method: (§5) 293T cells expressing human GPRC5D as described above was prepared into a suspension at concentration of 1×10⁵ cells/ml in PBS containing 2% FBS.
(§6) 1 ml of FACS buffer was added to each FACS tube, centrifuged at 1200 rpm for 5 mins. The supernatant was discarded followed by washing three times. At the same time, control tube 1 (no supernatant of the culture and the secondary antibody mentioned below, adding only cell suspension) and control tube 2 (no supernatant of the culture, adding only cell suspension and the secondary antibody mentioned below) were included.
as §1

[8] = molecular target: T5, Nalm6 cells (NALM6, Kyinno, catalog number KC-0626); assay: FACS, hybridoma supernatant on Nalm6 cells
T5 construct: Kept apart from human GPRC5D so that the low MFI values on this line are not laid to the GPRC5D pair

[9] = molecular target: T4, human GPRC5D (G protein-coupled …); assay: FACS, hybridoma supernatant on 293T cells expressing human GPRC5D; remark: listed apart in the source
Method: as §5, §6, §1

[10] = molecular target: T4, human GPRC5D (G protein-coupled …); assay: cell ELISA, hybridoma supernatant on fixed BXPC-3 cells expressing human GPRC5D
Method: BXPC-3 cells expressing human GPRC5D (Kyinno, catalog number KC-1717) were prepared into a suspension at concentration of 1×10⁵ cells/ml in PBS containing 2% FBS. The suspension was added to a 96-well plate at 100 μl/well and cultured overnight at 37° C. The wells were cleared of their contents and washed three times with washing solution. 80 μl of 4% tissue fixative (Beyotime, catalog number P0099) was added to each well followed by fixing at room temperature for 15 min, washing twice with PBS and drying. 250 μl of blocking solution containing 2% BSA was added to each well followed by incubation at 37° C. for 1 hr and washing three times with PBS. 50-100 μl of the supernatant of the hybridoma cell culture was added to each well. A positive control (adding serum from fusion mice), a negative control (adding serum from normal mice) and a blank control (adding culture medium) were included. The wells were incubated at 37° C. for 1-2 hrs, washed, and dried. Then, the enzyme-labeled secondary antibody, HRP-labeled goat anti-mouse IgG (SIGMA, catalog number A9044-2 ml) was added at dilution of 1:10000 and 50-100 μl/well. The wells were incubated at 37° C. for 1-2 hrs, washed, and dried. 50-100 μl of freshly prepared developing solution TMB was added to each well and incubated at 37° C. for 10-30 mins.
2 mol/L H₂SO₄ was added to terminate the reaction, and the OD value was read on an enzyme-linked immunosorbent reader.

[11] = molecular target: T4, human GPRC5D (G protein-coupled …); assay: FACS, hybridoma supernatant on MM1R cells
[12] = molecular target: T4, human GPRC5D (G protein-coupled …); assay: FACS, hybridoma supernatant on 293T cells expressing human GPRC5D; remark: listed apart in the source
Method: as §5, §6, §1

[13] = molecular target: T4, human GPRC5D (G protein-coupled …); assay: FACS, hybridoma supernatant on NCI-H929 cells
Method: as §1

[14] = molecular target: T1, monkey (cyno) GPRC5D, on 293T cells; assay: FACS, hybridoma supernatant on 293T cells expressing monkey GPRC5D
From the text: as §3

[15] = molecular target: T1, monkey (cyno) GPRC5D, on 293T cells; assay: as above; remark: listed apart in the source
From the text: as §3

[16] = molecular target: T4, human GPRC5D (G protein-coupled …); assay: FACS, hybridoma supernatant on OPM2 cells
[17] = molecular target: T4, human GPRC5D (G protein-coupled …); assay: FACS, hybridoma supernatant on 293T cells expressing human GPRC5D; remark: listed apart in the source
Method: as §5, §6, §1

B1: GPRC5D×CD3 JNJ (anti-hGPRC5D×CD3 bispecific antibody built with the GPRC5D-targeting and CD3-targeting domains of Talquetamab, JNJ-64407564) (bispecific antibody, human IgG1, kappa, lambda)
heavy 1: QVQLVQSGAEVKKPGASVKVSCKASGYSFTGYTMNWVRQAPGQGLEWMGLINPYNSDTNYAQKLQGRVTMTTDTSTSTAYMELRSLRSDDTAVYYCARVALRVALDYWGQGTLVTVSSASTKGPSVFPLAPSSKSTSGGTAALGCLVKDYFPEPVTVSWNSGALTSGVHTFPAVLQSSGLYSLSSVVTVPSSSLGTQTYICNVNHKPSNTKVDKRVEPKSCDKTHTCPPCPAPPAAGPSVFLFPPKPKDTLMISRTPEVTCVVVDVSHEDPEVKFNWYVDGVEVHNAKTKPREEQYNSTYRVVSVLTVLHQDWLNGKEYKCKVSNKALAAPIEKTISKAKGQPREPQVYTLPPCREEMTKNQVSLWCLVKGFYPSDIAVEWESNGQPENNYKTTPPVLDSDGSFLLYSKLTVDKSRWQQGNVFSCSVMHEALHNHYTQKSLSLSPGK
heavy 2: QTVVTQEPSLTVSPGGTVTLTCRSSTGAVTTSNYANWVQQKPGQAPRGLIGGTNKRAPGTPARFSGSLLGGKAALTLSGVQPEDEAEYYCALWYSNLWVFGGGTKLTVLSSASTKGPSVFPLAPSSKSTSGGTAALGCLVEDYFPEPVTVSWNSGALTSGVHTFPAVLQSSGLYSLSSVVTVPSSSLGTQTYICNVNHKPSNTKVDDRVEPKSCDKTHTCPPCPAPPAAGPSVFLFPPKPKDTLMISRTPEVTCVVVDVSHEDPEVKFNWYVDGVEVHNAKTKPREEQYNSTYRVVSVLTVLHQDWLNGKEYKCKVSNKALAAPIEKTISKAKGQPREPQVCTLPPSREEMTKNQVSLSCAVKGFYPSDIAVEWESNGQPENNYKTTPPVLDSDGSFFLVSRLTVDKSRWQQGNVFSCSVMHEALHNHYTQKSLSLSPGK
light 1: DIQMTQSPSSLSASVGDRVTITCKASQNVATHVGWYQQKPGKAPKRLIYSASYRYSGVPSRFSGSGSGTEFTLTISNLQPEDFATYYCQQYNRYPYTFGQGTKLEIKRTVAAPSVFIFPPSDEQLKSGTASVVCLLNNFYPREAKVQWKVDNALQSGNSQESVTEQDSKDSTYSLSSTLTLSKADYEKHKVYACEVTHQGLSSPVTKSFNRGEC
light 2: EVQLVESGGGLVQPGGSLRLSCAASGFTFNTYAMNWVRQAPGKGLEWVARIRSKYNNYATYYAASVKGRFTISRDDSKNSLYLQMNSLKTEDTAVYYCARHGNFGNSYVSWFAYWGQGTLVTVSSGQPKAAPSVTLFPPSSEELQANKATLVCLISDFYPGAVTVAWKADSSPVKAGVETTTPSKQSNNKYAASSYLSLTPEQWKSHRSYSCQVTHEGSTVEKTVAPTECS
notes: used as the positive control antibody throughout; also called Positive control antibody
EC50 [1]: 3.27 µg/mL
EC50 [2]: 13.1 µg/mL
FACS result [3]: 8.44
EC50 [4]: 4.39 µg/mL
FACS result [5]: 8.72
EC50 [6]: 14 µg/mL

B2: murine antibody 9D7 (A1 antibody) (antibody, V domains shown)
VH: QVQLKESGPGLVKPSQSLSLTCTVTGYSITSDYAWNWIRQFPGNKLEWMGYISYSGSATYNPSLKSRISITRDTSKNQFFLQLNSMTTEDTATYYCARGGIAGRGRWGAMDYWGQGTSVTVSS
VL: DIVMTQAQKFMSTSVGDRVSVTCKASQNVGTNVAWYQNKPGQSPKALIYSASYRDSGVPDRFTGRGSGTDFTLTISNVQSEDLAEYFCQQYKSYPLTFGAGTKLELK
notes: Tested as hybridoma cell culture supernatant; also called murine anti-9D7
EC50 [7]: 0.185 µg/mL
MFI.Max [8]: 10.8 MFI
EC50 [9]: 0.279 µg/mL
OD value [10]: 0.541 OD
EC50 [11]: 0.104 µg/mL
MFI.Max [11]: 554 MFI
EC50 [12]: 0.183 µg/mL
MFI.Max [12]: 9380 MFI
EC50 [13]: 0.021 µg/mL
MFI.Max [13]: 506 MFI
EC50 [14]: 0.229 µg/mL
EC50 [15]: 0.376 µg/mL
MFI.Max [15]: 5440 MFI
EC50 [16]: 0.177 µg/mL
MFI.Max [16]: 705 MFI

B3: murine antibody 26D1 (A2 antibody) (antibody, V domains shown)
VH: QVQLKQSGAELAGPGASVKMSCKASGYTFTSYTIQWIKQRPGQGLEWIGYIIPSSGYTNYNQKFKDKATLTADKSSNTAYMQLSSLTSEDSAVYYCANNYGNWGFTYWGQGTLVTVSA
VL: DILMTQSQKFMSTSVRDRVSISCKASQNVGSAVTWYQQKPGQSPRLLIYSASNRYTGVPDRFTGSGSGTDFTLTISNVQSEDLADYFCQQYSNYPLTFGGGTKLEIK
notes: Tested as hybridoma cell culture supernatant; also called murine anti-26D1
EC50 [7]: 0.169 µg/mL
OD value [10]: 0.871 OD
EC50 [17]: 0.788 µg/mL
EC50 [15]: 12.3 µg/mL

B4: murine antibody 6E97 (A4 antibody) (antibody, V domains shown)
VH: QVQLKESGPELVKPGASVKISCKASGYTFPYYVIHWVKQKPGQGLEWIGYINPYNDGTKYNEKFKGKAALTSDKSSSTAYMELSSLTSEDSAVYYCARGGVRRYFDYWGQGTTLTVSS
VL: QIVLTQSPSSLSASLGERVSLTCRASQDIGSNLNWLQQEPDGTIKRLISATSSLDSGVPKRFSGSRSGSDYSLTISSLESEDFVDYFCLQYATFPYTFGGGTKLEIK
notes: Tested as hybridoma cell culture supernatant; also called murine anti-6E97
MFI.Max [8]: 62.4 MFI
OD value [10]: 1.55 OD
MFI.Max [11]: 931 MFI
EC50 [12]: 0.111 µg/mL
MFI.Max [12]: 9610 MFI
MFI.Max [13]: 900 MFI
EC50 [15]: 0.243 µg/mL
MFI.Max [15]: 6290 MFI
EC50 [16]: 0.291 µg/mL
MFI.Max [16]: 1080 MFI
